Reference: patent US20210301018A1 (ITABMED HK, published 2021)

Assays:
[1] = molecular target: T1, cynomolgus monkey CD3 antigen construct cynoCD3εAA 1-27.Fc (cynomolgus monkey; human, UniProt Q95LI5 22-48); assay: BLI (Octet QKe), antigen-Fc captured on AHC sensor, ITAB2009 in solution
T1 construct: range 1-27
T1 chain (looked up): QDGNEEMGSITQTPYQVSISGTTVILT
Procedure: (§1) The human CD3 antigen construct (CD3εAA 1-27.Fc) and the cynomolgus monkey CD3 antigen construct (cynoCD3εAA 1-27.Fc) each consists of a peptide of amino acid residues 1-27 of CD3ε connected to a human IgG Fc. The expression of the antigen constructs is described in U.S. Pat. No. 8,846,042. The CD3 or CD19 antigen constructs (Cynomolgus/Rhesus CD19 Protein (Fc Tag), Sino Biological. Inc.; Recombinant Human CD19 Fc Chimera, R&D Systems. Inc.) were diluted to 0.02 mg/mL with dilution buffer (PBS), and then immobilized on an anti-Human Fc capture (AHC) biosensor. […] The control wells containing only PBS were also set up. The detection results were analyzed using ForteBio Data Analysis software.

[2] = molecular target: T2, Recombinant Human CD19 Fc Chimera (R&D Systems) (human, UniProt P15391 20-291); assay: as above
T2 construct: Bought reagent; also called huCD19.Fc; not shown: Fc of the bought chimera
T2 sequence (looked up): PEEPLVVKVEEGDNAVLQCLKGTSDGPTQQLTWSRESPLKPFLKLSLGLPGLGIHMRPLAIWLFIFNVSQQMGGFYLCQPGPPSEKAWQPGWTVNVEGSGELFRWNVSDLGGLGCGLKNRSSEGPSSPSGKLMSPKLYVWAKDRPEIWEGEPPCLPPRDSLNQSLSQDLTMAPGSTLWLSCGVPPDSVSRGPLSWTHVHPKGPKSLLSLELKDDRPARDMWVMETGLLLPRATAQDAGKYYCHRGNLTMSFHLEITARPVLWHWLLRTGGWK
Procedure: as §1

[3] = molecular target: T3, Cynomolgus/Rhesus CD19 Protein (Fc Tag) (Sino Biological) (cynomolgus monkey / rhesus, UniProt F7F486 20-292 (rhesus entry)); assay: as above
T3 construct: Bought reagent; also called cynoCD19.Fc
T3 sequence: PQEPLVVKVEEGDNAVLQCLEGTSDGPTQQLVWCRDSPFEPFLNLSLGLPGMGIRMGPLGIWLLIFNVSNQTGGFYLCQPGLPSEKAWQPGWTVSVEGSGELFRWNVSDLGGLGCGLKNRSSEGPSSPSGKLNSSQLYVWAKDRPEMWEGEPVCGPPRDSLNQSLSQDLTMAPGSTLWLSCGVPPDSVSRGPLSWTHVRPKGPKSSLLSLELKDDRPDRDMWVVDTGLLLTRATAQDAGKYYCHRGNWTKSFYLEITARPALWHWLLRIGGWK
Procedure: as §1

[4] = molecular target: T4, human CD19 on cells (human B lymphocytes; Raji, Daudi and Reh tumor cells) (human, UniProt P15391 20-556); assay: flow cytometry, binding rate on B cells in human PBMC, detection with anti-human Ig κ light chain
T4 construct: whole, on cells; also called huCD19; cell surface antigen CD19 on human B cells
T4 sequence (looked up): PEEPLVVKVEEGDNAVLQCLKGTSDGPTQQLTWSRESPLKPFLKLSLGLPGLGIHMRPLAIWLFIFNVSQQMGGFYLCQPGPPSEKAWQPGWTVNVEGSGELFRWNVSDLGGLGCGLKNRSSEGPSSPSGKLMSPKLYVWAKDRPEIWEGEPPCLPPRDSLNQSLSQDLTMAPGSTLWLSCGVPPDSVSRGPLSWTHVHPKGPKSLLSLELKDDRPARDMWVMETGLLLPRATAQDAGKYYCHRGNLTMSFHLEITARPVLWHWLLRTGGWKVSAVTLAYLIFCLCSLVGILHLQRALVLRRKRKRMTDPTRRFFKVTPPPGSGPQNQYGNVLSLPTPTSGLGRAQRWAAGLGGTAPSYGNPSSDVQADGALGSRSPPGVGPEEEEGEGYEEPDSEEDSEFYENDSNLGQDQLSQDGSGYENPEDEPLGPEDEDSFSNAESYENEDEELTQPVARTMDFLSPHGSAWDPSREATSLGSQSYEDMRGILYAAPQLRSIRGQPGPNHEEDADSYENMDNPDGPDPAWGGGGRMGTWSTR
Procedure: (§2) About 3.6×10⁵ PBMCs (huPBMC or cynoPBMC) per well were added to a 96-well plate. […] Cells were washed with FACS buffer once, resuspended in 50 μL FACS buffer, supplemented with Antibody PE Mouse Anti-Human CD20 (BD Pharmingen™), FITC Mouse Anti-Human CD4 (BD Pharmingen™), and APC Mouse anti-Human Ig, κ Light Chain (BD Pharmingen™), and incubated at room temperature for 45 min. 200 μL FACS buffer was finally added, and the samples were analyzed using ACCURI® C6 Cytometer (BD Biosciences).
(§3) Binding rate was plotted against the y-axis, and drug concentration was plotted against the x-axis. The curve was fitted using a 4-parameter logistic model to determine EC50.

[5] = molecular target: T5, human CD3 on human T lymphocytes (huPBMC) (human, UniProt P07766 23-207); assay: flow cytometry, binding rate on T cells in human PBMC, detection with anti-human Ig κ light chain
T5 construct: whole, on cells; also called huCD3; cell surface antigen CD3 on human T cells
Procedure: as §2, §3

[6] = molecular target: T6, cynomolgus monkey CD19 on cynomolgus monkey B lymphocytes (cynoPBMC) (cynomolgus monkey, UniProt A0A2K5W8L9 20-557); assay: flow cytometry, binding rate on B cells in cynomolgus monkey PBMC, detection with anti-human Ig κ light chain
T6 construct: whole, on cells; also called cynoCD19; cell surface antigen CD19 on cynomolgus monkey B cells
T6 sequence: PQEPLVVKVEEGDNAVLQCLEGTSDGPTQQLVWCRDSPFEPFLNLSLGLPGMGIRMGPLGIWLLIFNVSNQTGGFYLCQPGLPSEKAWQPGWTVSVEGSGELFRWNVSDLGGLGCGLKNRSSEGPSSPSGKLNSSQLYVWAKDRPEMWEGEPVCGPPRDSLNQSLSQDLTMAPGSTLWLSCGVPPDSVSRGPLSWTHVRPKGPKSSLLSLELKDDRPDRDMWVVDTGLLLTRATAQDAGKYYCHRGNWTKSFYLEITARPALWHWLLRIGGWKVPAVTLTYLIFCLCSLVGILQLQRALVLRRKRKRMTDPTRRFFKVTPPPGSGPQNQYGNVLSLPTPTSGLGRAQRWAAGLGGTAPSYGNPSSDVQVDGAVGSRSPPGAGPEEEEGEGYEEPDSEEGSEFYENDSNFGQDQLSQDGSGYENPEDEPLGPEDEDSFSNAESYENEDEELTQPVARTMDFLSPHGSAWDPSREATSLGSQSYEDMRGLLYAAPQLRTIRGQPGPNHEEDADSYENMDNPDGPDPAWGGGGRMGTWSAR
Procedure: (§4) CynoPBMC Preparation: Whole blood samples from cynomolgus monkeys were diluted with PBS buffer (Gibco), centrifuged by density gradient centrifugation using 90% Ficoll-Paque isolation buffer (obtained by diluting Ficoll-Paque with PBS, Ficoll-Paque, GE Healthcare) to obtain PBMC, washed twice with PBS, then centrifuged at room temperature, 1000 g for 10 min. Cells were collected, and resuspended in RPM′ 1640 Medium (Gibco) containing 10% FBS.
as §2, §3

[7] = molecular target: T7, cynomolgus monkey CD3 on cynomolgus monkey T lymphocytes (cynoPBMC) (cynomolgus monkey, UniProt Q95LI5 22-198); assay: flow cytometry, binding rate on T cells in cynomolgus monkey PBMC, detection with anti-human Ig κ light chain
T7 construct: whole, on cells; also called cynoCD3; cell surface antigen CD3 on cynomolgus monkey T cells
Procedure: as §4, §2, §3

[8] = molecular target: T4, human CD19 on cells (human B …); assay: cell-based or functional assay

T5 sequence (P07766 23-207): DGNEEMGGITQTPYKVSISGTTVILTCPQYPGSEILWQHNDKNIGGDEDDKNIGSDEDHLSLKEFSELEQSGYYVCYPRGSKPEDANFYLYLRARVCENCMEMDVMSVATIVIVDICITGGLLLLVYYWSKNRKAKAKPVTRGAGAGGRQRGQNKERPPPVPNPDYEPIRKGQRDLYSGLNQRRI

B1: CD19×CD3 bispecific antigen binding protein ITAB2009 (bispecific antibody)
chain: EVQLVESGGGLVQPGGSLRLSCAASGFTFNTYAMNWVRQAPGKGLEWVARIRSKYNNYATYYADSVKDRFTISRDDSKNTLYLQMNSLRAEDTAVYYCVRHGNFGNSYVSWFAYWGQGTMVTVSSGGGGSGGGGSGGGGSQAVVTQEPSLTVSPGGTVTLTCRSSTGAVTTSNYANWVQQKPGQAPRGLIGGTNKRAPGTPARFSGSLLGGKAALTLSGVQPEDEAEYYCALWYSNLWVFGGGTKLTVLSGGGGSQVQLVQSGPELIKPGGSVKMSCKASGYTFTSYVMHWVRQKPGQGLEWIGYINPYNDGTKYNEKFKGRATLTSDKSSSTAYMELSSLRSEDSAVYYCARGTYYYGSRVFDYWGQGTTVTVSSASTKGPSVFPLAPSSKSTSGGTAALGCLVKDYFPEPVTVSWNSGALTSGVHTFPAVLQSSGLYSLSSVVTVPSSSLGTQTYICNVNHKPSNTKVDKKVEPKSCPPCS
light: DVVMTQSPSSIPVTLGESVSISCRSSKSLQNVNGNTYLYWFQQRPGQSPQLLIYRMSNLNSGVPDRFSGSGSGTDFTLRISGVEPEDVGVYYCMQHLEYPITFGAGTKLEIKRTVAAPSVFIFPPSDEQLKSGTASVVCLLNNFYPREAKVQWKVDNALQSGNSQESVTEQDSKDSTYSLSSTLTLSKADYEKHKVYACEVTHQGLSSPVTKSFNRGECPPCS
notes: Anti-CD3 scFv joined to the N-terminus of the VH of the anti-CD19 Fab; also called CD19×CD3 BSAP ITAB2009; ITB2009
- Kd [1]: 12.9 nM
- Kd [2]: 18.2 nM
- Kd [3]: 29.6 nM
- EC50 [4]: 35 ng/mL
- EC50 [5]: 204 ng/mL
- EC50 [6]: 1900 ng/mL
- EC50 [7]: 115 ng/mL
- EC50 of CD19×CD3 BSAP mediated human PBMC cytotoxicity against tumor cells (Daudi) [8]: 0.06 ng/mL
- EC50 of CD19×CD3 BSAP mediated human PBMC cytotoxicity against tumor cells (Raji) [8]: 0.04 ng/mL
- EC50 of CD19×CD3 BSAP mediated human PBMC cytotoxicity against tumor cells (Reh) [8]: 0.24 ng/mL
